Here are results for one molecule from patent US20190016796A1.

Assay [1] addresses human interleukin-2 (human) (UniProt P60568). The experiment in a line: sandwich ELISA, hIL-2 captured on coated 5344, biotinylated MAB602 as detector, no competitor (well H11).
Assay [2] deals with murine interleukin-2 (mouse) (UniProt P04351). The experiment in a line: SPR, MAB602 amine-coupled to GLM chip, mouse IL-2 as analyte at concentrations >1 nM.
In assay [3] the target is human interleukin-2 (human) (UniProt P60568). Put plainly: SPR, antibody amine-coupled to GLM chip, hIL-2 as analyte (100 nM, three-fold dilutions). A general note: Surface plasmon resonance follows binding to a sensor surface in real time, without labels.
human interleukin-2 (human), sequence (P60568 21-153 limits assumed): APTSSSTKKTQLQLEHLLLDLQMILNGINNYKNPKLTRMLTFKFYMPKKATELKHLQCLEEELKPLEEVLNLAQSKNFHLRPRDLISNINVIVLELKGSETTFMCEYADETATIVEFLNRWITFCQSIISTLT

murine interleukin-2 (mouse), sequence (P04351 21-169 limits assumed): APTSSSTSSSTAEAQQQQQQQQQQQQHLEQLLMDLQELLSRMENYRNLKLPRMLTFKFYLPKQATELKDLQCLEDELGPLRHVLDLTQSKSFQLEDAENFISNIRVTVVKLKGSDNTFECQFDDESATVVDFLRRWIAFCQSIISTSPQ

B1: commercially available anti-human IL-2 monoclonal antibody MAB602 (antibody, from another filing, V domains shown)
VH: EVQLQESGPGLVAPSQSLSITCTVSGFSLTNYDISWIRQPPGKGLEWLGVIWTGGGTNYNSGFMSRLSITKDNSKSQVFLKMNSLQTDDTAIYYCVRQGRTPYWGQGTLVTVSA
VL: DIQVTQSPSSLSVSLGDRVTITCKASKDIYNRLAWYQQKPGNAPRLLISGATSLETGVPSRFSGSGSGKDYTLTITSLQTEDVATYYCQQFWGTPYTFGGGTKLEIKR
The term Kd denotes the concentration at which binding is half-saturated. Read a high Kd as weaker binding. A word on the koff: it is the rate constant with which the complex falls apart. In assay [1], B1 displayed an absorbance (OD450) of 1.1 OD450. Further, the response units (RU) in assay [2] is more than 10 RU. In assay [3], this molecule registered a Kd of 9.7 nM and a dissociation rate constant (koff) of 0.000494 s⁻¹.
